Tested on: LAP-MMP IL-4

Sequence of MMP-1, recombinant (P03956 100-469): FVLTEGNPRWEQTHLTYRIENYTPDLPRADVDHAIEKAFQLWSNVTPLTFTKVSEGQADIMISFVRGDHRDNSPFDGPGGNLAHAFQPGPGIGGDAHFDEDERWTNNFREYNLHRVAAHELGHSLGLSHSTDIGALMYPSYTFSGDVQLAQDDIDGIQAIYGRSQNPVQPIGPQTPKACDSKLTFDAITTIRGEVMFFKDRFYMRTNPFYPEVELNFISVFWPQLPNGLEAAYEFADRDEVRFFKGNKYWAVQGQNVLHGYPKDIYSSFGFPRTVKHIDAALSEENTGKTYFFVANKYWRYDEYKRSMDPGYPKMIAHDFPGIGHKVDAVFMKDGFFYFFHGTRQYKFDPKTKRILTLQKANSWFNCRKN

## MMP-1, recombinant
  cleavage of the fusion protein in 293T supernatant after overnight incubation at 37 C, Western blot probed with anti-IL-4 antibody: LAP-MMP IL-4 is only cleaved by MMP-1

Reference: patent publication US8357515
